T1: human CD19 (human, UniProt P15391 20-556)
T1 construct: also called B-cell surface antigen B4; B-cell antigen CD19
T1 sequence: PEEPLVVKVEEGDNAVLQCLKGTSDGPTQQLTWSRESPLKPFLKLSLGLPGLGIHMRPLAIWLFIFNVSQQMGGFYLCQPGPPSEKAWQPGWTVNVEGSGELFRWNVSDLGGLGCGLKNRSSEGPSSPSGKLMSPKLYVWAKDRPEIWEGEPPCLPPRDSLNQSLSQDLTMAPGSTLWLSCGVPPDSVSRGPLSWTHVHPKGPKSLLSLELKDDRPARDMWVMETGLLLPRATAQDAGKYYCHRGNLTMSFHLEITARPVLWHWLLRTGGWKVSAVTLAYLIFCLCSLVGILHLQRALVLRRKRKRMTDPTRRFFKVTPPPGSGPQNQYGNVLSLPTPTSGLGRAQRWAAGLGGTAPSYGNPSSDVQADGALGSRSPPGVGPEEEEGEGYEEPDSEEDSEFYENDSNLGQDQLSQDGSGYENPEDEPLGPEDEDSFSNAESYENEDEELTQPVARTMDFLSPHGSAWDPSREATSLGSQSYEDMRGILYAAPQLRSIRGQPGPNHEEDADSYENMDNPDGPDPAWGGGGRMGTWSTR


Molecular target: T1, human CD19
Test: binding affinity relative to the parent H1L1 mAb (Example 5); assay and format not named on the sheet

Binder | Fold change binding [fold]
H1.191 / L1.155 (antibody, V domains shown, vs H1L1 (Kabat): VH K58E/S100cT; VL L27cQ/S27eV/A55N/F96I; also called 4G7 H1.191_L1.155) VH: EVQLVESGGGLVKPGGSLKLSCAASGYTFTSYVMHWVRQAPGKGLEWIGYINPYNDGTEYNEKFQGRVTISSDKSISTAYMELSSLRSEDTAMYYCARGTYYYGTRVFDYWGQGTLVTVSS VL: DIVMTQSPATLSLSPGERATLSCRSSKSLQNVNGNTYLYWFQQKPGQSPQLLIYRMSNLNSGVPDRFSGSGSGTEFTLTISSLEPEDFAVYYCMQHLEYPITFGAGTKLEIK | 4.56
H1.192 / L1.141 (antibody, V domains shown, vs H1L1 (Kabat): VH T57P/S100cT; VL A55N/F96N; also called 4G7 H1.192_L1.141) VH: EVQLVESGGGLVKPGGSLKLSCAASGYTFTSYVMHWVRQAPGKGLEWIGYINPYNDGPKYNEKFQGRVTISSDKSISTAYMELSSLRSEDTAMYYCARGTYYYGTRVFDYWGQGTLVTVSS VL: DIVMTQSPATLSLSPGERATLSCRSSKSLLNSNGNTYLYWFQQKPGQSPQLLIYRMSNLNSGVPDRFSGSGSGTEFTLTISSLEPEDFAVYYCMQHLEYPNTFGAGTKLEIK | 2.57
H1.191 / L1.160 (antibody, V domains shown, vs H1L1 (Kabat): VH K58E/S100cT; VL L27cQ/S27eV/G29A/A55N/F96I; also called 4G7 H1.191_L1.160) VH: EVQLVESGGGLVKPGGSLKLSCAASGYTFTSYVMHWVRQAPGKGLEWIGYINPYNDGTEYNEKFQGRVTISSDKSISTAYMELSSLRSEDTAMYYCARGTYYYGTRVFDYWGQGTLVTVSS VL: DIVMTQSPATLSLSPGERATLSCRSSKSLQNVNANTYLYWFQQKPGQSPQLLIYRMSNLNSGVPDRFSGSGSGTEFTLTISSLEPEDFAVYYCMQHLEYPITFGAGTKLEIK | 2.91
H1.191 / L1.161 (antibody, V domains shown, vs H1L1 (Kabat): VH K58E/S100cT; VL L27cQ/S27eV/G29S/A55N/F96I; also called 4G7 H1.191_L1.161) VH: EVQLVESGGGLVKPGGSLKLSCAASGYTFTSYVMHWVRQAPGKGLEWIGYINPYNDGTEYNEKFQGRVTISSDKSISTAYMELSSLRSEDTAMYYCARGTYYYGTRVFDYWGQGTLVTVSS VL: DIVMTQSPATLSLSPGERATLSCRSSKSLQNVNSNTYLYWFQQKPGQSPQLLIYRMSNLNSGVPDRFSGSGSGTEFTLTISSLEPEDFAVYYCMQHLEYPITFGAGTKLEIK | 3.97

Second part, the binder after the results:

Fold change binding [fold] | Binder
4.11 | H1.199 / L1.146 (antibody, V domains shown, vs H1L1 (Kabat): VH T57P/K58E/S100cT; VL S27eV/A55N/F96N; also called 4G7 H1.199_L1.146) VH: EVQLVESGGGLVKPGGSLKLSCAASGYTFTSYVMHWVRQAPGKGLEWIGYINPYNDGPEYNEKFQGRVTISSDKSISTAYMELSSLRSEDTAMYYCARGTYYYGTRVFDYWGQGTLVTVSS VL: DIVMTQSPATLSLSPGERATLSCRSSKSLLNVNGNTYLYWFQQKPGQSPQLLIYRMSNLNSGVPDRFSGSGSGTEFTLTISSLEPEDFAVYYCMQHLEYPNTFGAGTKLEIK
4.02 | H1.199 / L1.141 (antibody, V domains shown, vs H1L1 (Kabat): VH T57P/K58E/S100cT; VL A55N/F96N; also called 4G7 H1.199_L1.141) VH: EVQLVESGGGLVKPGGSLKLSCAASGYTFTSYVMHWVRQAPGKGLEWIGYINPYNDGPEYNEKFQGRVTISSDKSISTAYMELSSLRSEDTAMYYCARGTYYYGTRVFDYWGQGTLVTVSS VL: DIVMTQSPATLSLSPGERATLSCRSSKSLLNSNGNTYLYWFQQKPGQSPQLLIYRMSNLNSGVPDRFSGSGSGTEFTLTISSLEPEDFAVYYCMQHLEYPNTFGAGTKLEIK
3.42 | H1.196 / L1 (antibody, V domains shown, vs H1L1 (Kabat): VH T57P/S100cT/R100dS; also called 4G7 H1.196_L1) VH: EVQLVESGGGLVKPGGSLKLSCAASGYTFTSYVMHWVRQAPGKGLEWIGYINPYNDGPKYNEKFQGRVTISSDKSISTAYMELSSLRSEDTAMYYCARGTYYYGTSVFDYWGQGTLVTVSS VL: DIVMTQSPATLSLSPGERATLSCRSSKSLLNSNGNTYLYWFQQKPGQSPQLLIYRMSNLASGVPDRFSGSGSGTEFTLTISSLEPEDFAVYYCMQHLEYPFTFGAGTKLEIK
4.36 | H1.196 / L1.152 (antibody, V domains shown, vs H1L1 (Kabat): VH T57P/S100cT/R100dS; VL L27cQ/S27eV/F96N; also called 4G7 H1.196_L1.152) VH: EVQLVESGGGLVKPGGSLKLSCAASGYTFTSYVMHWVRQAPGKGLEWIGYINPYNDGPKYNEKFQGRVTISSDKSISTAYMELSSLRSEDTAMYYCARGTYYYGTSVFDYWGQGTLVTVSS VL: DIVMTQSPATLSLSPGERATLSCRSSKSLQNVNGNTYLYWFQQKPGQSPQLLIYRMSNLASGVPDRFSGSGSGTEFTLTISSLEPEDFAVYYCMQHLEYPNTFGAGTKLEIK
2.98 | H1.192 / L1.152 (antibody, V domains shown, vs H1L1 (Kabat): VH T57P/S100cT; VL L27cQ/S27eV/F96N; also called 4G7 H1.192_L1.152) VH: EVQLVESGGGLVKPGGSLKLSCAASGYTFTSYVMHWVRQAPGKGLEWIGYINPYNDGPKYNEKFQGRVTISSDKSISTAYMELSSLRSEDTAMYYCARGTYYYGTRVFDYWGQGTLVTVSS VL: DIVMTQSPATLSLSPGERATLSCRSSKSLQNVNGNTYLYWFQQKPGQSPQLLIYRMSNLASGVPDRFSGSGSGTEFTLTISSLEPEDFAVYYCMQHLEYPNTFGAGTKLEIK
4.48 | H1.201 / L1.155 (antibody, V domains shown, vs H1L1 (Kabat): VH D55S/S100cT; VL L27cQ/S27eV/A55N/F96I; also called 4G7 H1.201_L1.155) VH: EVQLVESGGGLVKPGGSLKLSCAASGYTFTSYVMHWVRQAPGKGLEWIGYINPYNSGTKYNEKFQGRVTISSDKSISTAYMELSSLRSEDTAMYYCARGTYYYGTRVFDYWGQGTLVTVSS VL: DIVMTQSPATLSLSPGERATLSCRSSKSLQNVNGNTYLYWFQQKPGQSPQLLIYRMSNLNSGVPDRFSGSGSGTEFTLTISSLEPEDFAVYYCMQHLEYPITFGAGTKLEIK

Reference: patent publication US20100272723A1 (Xencor, published 2010)
